# Results from paper PMC9482650, “Quantitative fragmentomics allow affinity mapping of interactomes” (Nature Communications, 2022).
# T1: SHROOM3, Q8TF72
# T1 sequence (Q8TF72 20-120, limits assumed, looked up): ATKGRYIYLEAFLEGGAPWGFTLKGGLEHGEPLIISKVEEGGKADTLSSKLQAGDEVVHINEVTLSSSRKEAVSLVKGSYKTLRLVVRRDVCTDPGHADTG
# T2: MPDZ_2, O75970
# T2 sequence (O75970 252-347, limits assumed, looked up): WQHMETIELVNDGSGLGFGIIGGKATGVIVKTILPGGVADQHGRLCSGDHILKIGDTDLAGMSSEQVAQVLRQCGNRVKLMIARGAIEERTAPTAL
# T3: MPDZ_7, O75970
# T3 sequence (O75970 1146-1253, limits assumed, looked up): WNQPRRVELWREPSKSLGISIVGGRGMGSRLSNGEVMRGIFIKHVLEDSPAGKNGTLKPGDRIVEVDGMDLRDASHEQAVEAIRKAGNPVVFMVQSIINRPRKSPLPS
# T4: PTPN13_4, Q12923
# T4 sequence (Q12923 1783-1878, limits assumed, looked up): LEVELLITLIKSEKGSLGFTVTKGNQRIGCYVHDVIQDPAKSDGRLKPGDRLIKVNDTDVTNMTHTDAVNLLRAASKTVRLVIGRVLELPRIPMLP
# T5: PDZRN3_2, Q9UPQ7
# T5 sequence (Q9UPQ7 414-513, limits assumed, looked up): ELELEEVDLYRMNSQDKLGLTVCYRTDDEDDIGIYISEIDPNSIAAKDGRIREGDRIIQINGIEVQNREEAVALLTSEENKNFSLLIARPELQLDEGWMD
# T6: SNTB2, Q13425
# T6 sequence (Q13425 110-208, limits assumed, looked up): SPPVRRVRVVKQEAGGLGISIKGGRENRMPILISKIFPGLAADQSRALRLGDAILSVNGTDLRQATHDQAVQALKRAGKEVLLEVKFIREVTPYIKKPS
# T7: MPDZ_3, O75970
# T7 sequence (O75970 372-473, limits assumed, looked up): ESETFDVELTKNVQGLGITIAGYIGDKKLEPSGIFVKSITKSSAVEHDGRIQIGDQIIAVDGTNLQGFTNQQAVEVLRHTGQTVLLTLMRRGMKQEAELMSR
# T8: PDZD2_4, O15018
# T8 sequence (O15018 723-823, limits assumed, looked up): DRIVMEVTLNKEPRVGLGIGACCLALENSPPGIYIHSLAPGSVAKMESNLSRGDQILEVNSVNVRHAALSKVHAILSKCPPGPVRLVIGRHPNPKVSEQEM
# Assays:
# Assay in all cases: holdup assay
# Design in all cases: key: below the threshold = too weak to quantify, mostly under pKd 3.1 to 4
# Details in all cases: plain residues with an end cap or a label only (N-terminal biotin on a linker: ttds)
# [1] = target: O60759
# [2] = target: T1, SHROOM3, Q8TF72
# [3] = target: Q9H190
# [4] = target: O43166
# [5] = target: PDZD9, Q8IXQ8
# [6] = target: T2, MPDZ_2, O75970
# [7] = target: T3, MPDZ_7, O75970
# [8] = target: PARD3B_3, Q8TEW8
# [9] = target: TJP1_1, Q07157
# [10] = target: GIPC3, Q8TF64
# [11] = target: Q96SB3
# [12] = target: T4, PTPN13_4, Q12923
# [13] = target: T5, PDZRN3_2, Q9UPQ7
# [14] = target: Q9Y3R0
# [15] = target: T6, SNTB2, Q13425
# [16] = target: O75970
# [17] = target: Q9ULJ8
# [18] = target: PDLIM4, P50479
# [19] = target: Q9NR12
# [20] = target: GRIP2_2, Q9C0E4
# [21] = target: Q6ZWJ1
# [22] = target: Q12923
# [23] = target: T7, MPDZ_3, O75970
# [24] = target: Q70Z35
# [25] = target: MAGI1_3, Q96QZ7
# [26] = target: Q96JB8
# [27] = target: NHERF4_3, Q86UT5
# [28] = target: MAGI3_4, Q5TCQ9
# [29] = target: PREX1_1, Q8TCU6
# [30] = target: T8, PDZD2_4, O15018
# [31] = target: MAGI1_6, Q96QZ7
# Chain of MAGI1_6, Q96QZ7 (Q96QZ7 1146-1238): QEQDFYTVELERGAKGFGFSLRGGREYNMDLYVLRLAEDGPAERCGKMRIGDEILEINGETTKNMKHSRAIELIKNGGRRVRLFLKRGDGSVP
# Chain of PDZD9, Q8IXQ8 (Q8IXQ8 23-120): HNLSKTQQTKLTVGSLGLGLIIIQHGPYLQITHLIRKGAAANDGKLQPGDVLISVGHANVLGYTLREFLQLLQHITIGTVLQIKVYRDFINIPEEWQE
# Chain of MAGI1_3, Q96QZ7 (Q96QZ7 638-725): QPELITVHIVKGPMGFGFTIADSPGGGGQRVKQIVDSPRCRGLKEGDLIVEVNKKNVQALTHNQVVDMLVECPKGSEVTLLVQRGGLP
# Chain of PDLIM4, P50479 (P50479 1-83): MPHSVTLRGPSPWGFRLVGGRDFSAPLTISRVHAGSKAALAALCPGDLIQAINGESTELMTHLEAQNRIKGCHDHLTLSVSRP
# Chain of NHERF4_3, Q86UT5 (Q86UT5 325-412): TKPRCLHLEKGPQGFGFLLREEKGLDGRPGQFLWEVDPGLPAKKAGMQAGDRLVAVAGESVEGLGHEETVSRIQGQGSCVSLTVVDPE
# Chain of MAGI3_4, Q5TCQ9 (Q5TCQ9 716-815): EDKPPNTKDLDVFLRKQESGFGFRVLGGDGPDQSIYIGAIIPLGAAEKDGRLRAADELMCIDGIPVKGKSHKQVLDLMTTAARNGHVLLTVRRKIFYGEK
# Chain of GIPC3, Q8TF64 (Q8TF64 107-202): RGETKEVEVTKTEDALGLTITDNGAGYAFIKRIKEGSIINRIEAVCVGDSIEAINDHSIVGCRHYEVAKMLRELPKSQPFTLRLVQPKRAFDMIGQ
# Chain of TJP1_1, Q07157 (Q07157 18-120): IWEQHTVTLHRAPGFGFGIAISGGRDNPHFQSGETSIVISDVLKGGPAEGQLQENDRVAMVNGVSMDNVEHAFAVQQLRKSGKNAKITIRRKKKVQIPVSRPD
# Chain of PARD3B_3, Q8TEW8 (Q8TEW8 490-594): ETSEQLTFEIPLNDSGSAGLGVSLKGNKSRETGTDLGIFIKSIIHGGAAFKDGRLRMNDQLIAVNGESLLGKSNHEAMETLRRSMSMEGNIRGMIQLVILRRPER
# Chain of GRIP2_2, Q9C0E4 (Q9C0E4 137-245): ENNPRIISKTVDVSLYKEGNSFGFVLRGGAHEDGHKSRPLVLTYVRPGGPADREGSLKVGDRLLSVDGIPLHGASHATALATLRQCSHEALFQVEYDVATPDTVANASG
# Chain of PREX1_1, Q8TCU6 (Q8TCU6 608-718): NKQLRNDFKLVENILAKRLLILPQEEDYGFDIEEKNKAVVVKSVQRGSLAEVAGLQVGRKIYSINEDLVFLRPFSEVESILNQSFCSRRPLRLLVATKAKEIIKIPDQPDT
pKd [1],pKd [2],pKd [3],pKd [4],pKd [5],pKd [6],pKd [7],pKd [8],pKd [9],pKd [10],pKd [11],pKd [12],pKd [13],pKd [14],pKd [15],pKd [16],pKd [17],pKd [18],pKd [19],pKd [20],Binder,also measured
below the threshold,below the threshold,below the threshold,below the threshold,below the threshold,below the threshold,5.2,below the threshold,below the threshold,below the threshold,below the threshold,below the threshold,below the threshold,below the threshold,5.13,below the threshold,below the threshold,below the threshold,below the threshold,below the threshold,"NYWPGKETQL [SLCO1C1, Q9NYB5]",pKd [21]: below the threshold; pKd [22]: below the threshold; pKd [23]: below the threshold; pKd [24]: below the threshold; pKd [25]: below the threshold; pKd [26]: below the threshold; pKd [27]: 4.56; pKd [28]: below the threshold; pKd [29]: below the threshold; pKd [30]: below the threshold; pKd [31]: below the threshold
below the threshold,below the threshold,below the threshold,below the threshold,below the threshold,below the threshold,below the threshold,below the threshold,below the threshold,below the threshold,below the threshold,below the threshold,below the threshold,below the threshold,below the threshold,below the threshold,below the threshold,below the threshold,below the threshold,below the threshold,"QPGTPTRTAV [MAP2K2, P36507]",pKd [21]: below the threshold; pKd [22]: below the threshold; pKd [23]: below the threshold; pKd [24]: below the threshold; pKd [25]: below the threshold; pKd [26]: below the threshold; pKd [27]: below the threshold; pKd [28]: below the threshold; pKd [29]: below the threshold; pKd [30]: below the threshold; pKd [31]: below the threshold
below the threshold,below the threshold,below the threshold,below the threshold,below the threshold,below the threshold,below the threshold,below the threshold,below the threshold,below the threshold,below the threshold,below the threshold,below the threshold,below the threshold,4.87,below the threshold,below the threshold,below the threshold,below the threshold,below the threshold,"HIVEALETDV [PBK, Q96KB5]",pKd [21]: below the threshold; pKd [22]: below the threshold; pKd [23]: below the threshold; pKd [24]: below the threshold; pKd [25]: 4.43; pKd [26]: below the threshold; pKd [27]: below the threshold; pKd [28]: below the threshold; pKd [29]: below the threshold; pKd [30]: below the threshold; pKd [31]: 4.91
below the threshold,below the threshold,below the threshold,below the threshold,below the threshold,below the threshold,below the threshold,below the threshold,below the threshold,below the threshold,below the threshold,below the threshold,below the threshold,below the threshold,4.42,below the threshold,below the threshold,below the threshold,below the threshold,below the threshold,"MERLRVETDV [ARHGEF16, Q5VV41]",pKd [21]: below the threshold; pKd [22]: below the threshold; pKd [23]: below the threshold; pKd [24]: below the threshold; pKd [25]: below the threshold; pKd [26]: below the threshold; pKd [27]: below the threshold; pKd [28]: below the threshold; pKd [29]: below the threshold; pKd [30]: below the threshold; pKd [31]: 4.33
